Data taken from US6471689B1, “Implantable drug delivery catheter system with capillary interface” (Thomas Jefferson University, priority 1999, dated 2002).

Test: Human insulin infusion via implanted drug delivery catheter system (DDCS) in rats, plasma insulin and glucose versus time
Assay type: in vivo
Details: for Time at which blood insulin levels peaked post infusion: human insulin 10 milliU/kg/min, 20 weeks post implantation
Text: The devices were implanted in 4 rats weighing ˜350 gm. Each animal was implanted with 2 devices: a mesenteric DDCS, implanted within the loose connective tissue of the bowel mesentery, and a subcutaneous DDCS implanted in the dorsal subcutaneous loose connective tissue. Catheters were primed with saline and proximal ends sealed. Catheters were then coiled and secured within the abdominal and subcutaneous spaces, respectively. There were no perioperative surgical complications and all 4 animals increased to a mean weight of 592±83 gm by 20 weeks.
The proximal portion of the catheters was exteriorized at 20-weeks post implantation and human insulin infusions were started at 10 milliU/kg/min with infusion rates of 60 μL/hr after careful determination of catheter dead space volume. Two animals were randomly assigned to receive insulin via mesenteric DDCS and two animals received infusions via subcutaneous DDCS. When the infusion was terminated, depth of anesthesia was increased and DDCS and surrounding tissue were explanted and immediately immersed in 10% buffered formalin for histological analysis. Tissue specimens were embedded in paraffin and 7-10 microns sections were prepared for H and E stains.

Substance: insulin
- Time at which blood insulin levels peaked post infusion (mesenteric DDCS): ≤ 5 min
- Blood glucose concentrations during insulin infusion (mesenteric and subcutaneous DDCS, 10 milliU/kg/min, measured at 5, 15, 30 min, not fasted, isoflurane anesthesia): decreased in proportion to increasing insulin concentrations
- Time at which blood insulin levels peaked post infusion (subcutaneous DDCS): ≤ 5 min
